# Experimental data published in patent publication US20160046706A1 (MEDICAL AND BIOLOGICAL LABORATORIES, published 2016).
# B1: 8a4 (antibody, mouse IgG1, V domains shown)
# VH: EVQLQQSGADLVRPGASVKLSCTASGFNIKDDYIHWVKQRPEQGLEWIGWIDPENGDTEYASQFQGKATITADTSSNTAYLQLRSLTSEDTAVYYCTTSDHRAWFAFWGLGTLVTVSS
# VL: DVLMTQTPLSLPVSLGDQASISCRSSQTIVHRNGNTYLEWYLQKPGQSPKLLIYRVSNRFSGVPDRFSGSGSGTDFTLKISRVEAEDLGVYYCFQGSHVPLTFGAGTKL
# notes: Mouse monoclonal antibody; Variable genes were amplified with mouse IgG1 CH1 and kappa constant region primers; The printed VL ends at ...GTKL; also called 8a4 antibody
# B2: 10bM3 (antibody, mouse IgG1, V domains shown)
# VH: EVQLVESGGGLVKPGGSRKLSCAASGFTFSDYGIHWVRQAPEKGLEWLAYISSGSSTIYYADTVKGRFTISRDNAKNTLFLQMTSLRSEDTAMYYCARGSNYVGYYAMDYWGQGTSVTVSS
# VL: DIVMTQSPSSLAVTAGEKVTMRCKSSQSLLWSVNQKNYLSWYQQKEGQSPKLLIYGASIRESWVPDRFTGSGSGTDFTLTISNVHAEDLAVYYCQHNHGRFLPLTFGGGTKL
# notes: Mouse monoclonal antibody; Variable genes were amplified with mouse IgG1 CH1 and kappa constant region primers; The printed VL ends at ...GTKL
# B3: 10b2M3 (antibody, mouse IgG1, V domains shown)
# VH: QVQLQQSGPELVKPGASVKISCKASGYAFSSSWMNWVKQRPGKGLEWIGRIYPGDGDIYYNGKFKGKATLTADKSSSTAYMQLNSLTSEDSAVYFCARTFNYPFFAYWGQGTLVTVSS
# VL: DILMTQSPSSLTVSTGEKVTMSCKSSQSLLASANQNNYLAWHQQKPGRSPKMLIIWASTRVSGVPDRFIGSGSGTDFTLTINSVQAEDLAVYYCQQSYSAPTTFGAGTKL
# notes: Mouse monoclonal antibody; Variable genes were amplified with mouse IgG1 CH1 and kappa constant region primers; The printed VL ends at ...GTKL; also called 10b2M3 antibody
# Tests used:
# [1] = target: T1, agPa (synthetic peptide containing the cleavage region of NRG1-a, bound to KLH); positions 221 to 244 of the … (human, bound to KLH); experiment: ELISA, partial-length NRG1 protein on the plate (FIG. 4)
# T1 peptide: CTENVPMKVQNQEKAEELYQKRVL
# Procedure: Hybridomas producing anti-NRG1 antibodies were selected by the enzyme-linked immunosorbent assay (ELISA). The assay used the recombinant human NRG1 proteins as immunogens, which had been dispensed in a 96-well ELISA plate (manufactured by nunc A/S) in an amount of 0.5 μg/mL, that is, 50 μL/well, and left to stand at room temperature for 2 hours or 4° C. overnight for adsorption. After the solution was removed, 1% BSA (manufactured by Nacalai Tesque, Inc.: 01863-35)—5% Sucrose (manufactured by WAKO PURE CHEMICAL […], LTD.)—PBS was added in an amount of 150 μL/well, and left to stand at room temperature for 2 hours to block the remaining active groups. After the resultant was left to stand, the solution was removed, and the hybridoma culture supernatant was dispensed as a primary antibody in an amount of 50 μL/well and left to stand for 1 hour. […] Then, the absorbance at 450 nm was measured using a plate reader (manufactured by Thermo Fisher Scientific Inc.).
# The sequences recognized by 8a2, 8a4, 10bM3, and 10b2M3 were analyzed by evaluating the reactivity with the recombinant NRG1 proteins. To be more specific, the analysis was performed using multiple partial-length NRG1 proteins, and the reactivity of each antibody with these was detected by the same enzyme-linked immunosorbent assay (ELISA) as above. […] The vertical axis represents the absorbance.
# [2] = target: T2, TGF-alpha (transforming growth factor α; R&D Systems 239-A-100) (UniProt P01135 40-89); experiment: ELISA, factor on the plate at 0.5 µg/mL (FIG. 8)
# T2 construct: Bought protein; also called TGFα; TGF-α
# T2 sequence (P01135 40-89 limits assumed): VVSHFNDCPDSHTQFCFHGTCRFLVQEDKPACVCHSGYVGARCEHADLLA
# Procedure: (§1) After the solution was removed, 1% BSA (manufactured by Nacalai Tesque, Inc.: 01863-35)—5% Sucrose (manufactured by WAKO PURE CHEMICAL […], LTD.)—PBS was added in an amount of 150 μL/well, and left to stand at room temperature for 2 hours to block the remaining active groups. After the resultant was left to stand, the solution was removed, and the hybridoma culture supernatant was dispensed as a primary antibody in an amount of 50 μL/well and left to stand for 1 hour. After the plate was washed with 0.05% Tween 20-PBS, an HRP-labeled anti-mouse IgG antibody (manufactured by MBL Co., Ltd.: 330) having been diluted 10000 times was added as a secondary antibody in an amount of 50 μL/well and left to stand at room temperature for 1 hour. After the plate was washed with 0.05% Tween 20-PBS, a color developing solution (5 mM sodium citrate, 0.8 mM 3.3′.5.5′-tetramethylbenzidine-2HCl, 10% N,N-dimethylformamide, 0.625% polyethylene glycol 4000, 5 mM citric acid monohydrate, 5 mM H2O2) was added thereto in an amount of 50 μL/well and left to stand at room temperature for 20 minutes to develop a color. The color development was terminated by adding 1 M phosphoric acid in an amount of 50 μL/well. Then, the absorbance at 450 nm was measured using a plate reader (manufactured by Thermo Fisher Scientific Inc.).
# (§2) As described above, any homology with the NRG1 protein is low in the EGF domain. Nonetheless, 8a4, 10bM3, and 10b2M3 capable of recognizing the vicinity of the EGF domain were analyzed for the reactivity with the other factors of the EGF family by the same ELISA as above. To be more specific, each of EGF (manufactured by R&D Systems, Inc.: 236-EG-200), HB-EGF (manufactured by R&D Systems, Inc.: 259-HE-050/CF), TGF-alpha (manufactured by R&D Systems, Inc.: 239-A-100), AREG (manufactured by R&D Systems, Inc.: 262-AR-100/CF), NRG1-α (manufactured by R&D Systems, Inc.: 296-HR-050/CF), or NRG1-b (manufactured by R&D Systems, Inc.: 296-HB-050/CF) was dispensed in a 96-well ELISA plate in an amount of 0.5 μg/mL, that is, 50 μL/well, and immobilized thereto, for detection of the reaction with each antibody in amounts of 10 μg/mL and 1 μg/mL.
# [3] = target: T3, HB-EGF (heparin-binding EGF-like growth factor; R&D Systems 259-HE-050/CF) (UniProt Q99075 63-148); experiment: ELISA, factor on the plate at 0.5 µg/mL (FIG. 8)
# T3 construct: Bought protein
# T3 sequence (Q99075 63-148 limits assumed): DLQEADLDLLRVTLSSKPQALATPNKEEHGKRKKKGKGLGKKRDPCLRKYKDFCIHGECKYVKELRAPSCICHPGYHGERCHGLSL
# Procedure: as §1, §2
# [4] = target: T4, EGF (R&D Systems 236-EG-200) (UniProt P01133 971-1023); experiment: ELISA, factor on the plate at 0.5 µg/mL (FIG. 8)
# T4 construct: Bought protein
# T4 sequence (P01133 971-1023 limits assumed): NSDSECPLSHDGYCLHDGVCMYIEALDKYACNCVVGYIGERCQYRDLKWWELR
# Procedure: as §1, §2
# [5] = target: T5, AREG (amphiregulin; R&D Systems 262-AR-100/CF) (UniProt P15514 101-198); experiment: ELISA, factor on the plate at 0.5 µg/mL (FIG. 8)
# T5 construct: Bought protein
# T5 sequence (looked up): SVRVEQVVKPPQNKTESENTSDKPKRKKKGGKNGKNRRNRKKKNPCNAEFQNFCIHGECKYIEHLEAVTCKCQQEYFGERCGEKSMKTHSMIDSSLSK
# Procedure: as §1, §2
# [6] = target: T6, human NRG1-β1 protein (full length, HA tag at the N-terminus, on NRG1-b/st293T cells) (human, UniProt Q02297 20-640); experiment: flow cytometry on NRG1-b/st293T cells
# T6 construct: also called NRG1 isoform 1; HA-NRG1-b/st293T; not shown: HA tag added to the N-terminus
# T6 sequence: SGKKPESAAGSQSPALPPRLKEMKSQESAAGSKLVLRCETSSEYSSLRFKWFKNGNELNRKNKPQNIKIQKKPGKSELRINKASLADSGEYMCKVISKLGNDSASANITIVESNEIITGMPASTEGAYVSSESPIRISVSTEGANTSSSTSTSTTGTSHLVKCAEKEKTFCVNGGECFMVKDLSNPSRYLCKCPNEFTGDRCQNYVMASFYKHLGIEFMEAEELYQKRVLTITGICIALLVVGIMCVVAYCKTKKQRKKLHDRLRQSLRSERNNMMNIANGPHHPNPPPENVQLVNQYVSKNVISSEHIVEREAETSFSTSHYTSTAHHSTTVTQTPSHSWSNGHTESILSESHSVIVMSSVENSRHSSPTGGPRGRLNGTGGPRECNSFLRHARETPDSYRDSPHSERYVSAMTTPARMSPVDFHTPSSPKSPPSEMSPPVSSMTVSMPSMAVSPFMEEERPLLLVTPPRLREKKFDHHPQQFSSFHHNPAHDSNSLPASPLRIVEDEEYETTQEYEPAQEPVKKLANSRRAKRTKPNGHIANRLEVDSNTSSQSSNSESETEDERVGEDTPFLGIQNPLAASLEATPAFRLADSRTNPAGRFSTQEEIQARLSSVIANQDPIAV
# [7] = target: T7, human NRG1-α protein (full length, HA tag at the N-terminus, on NRG1-a/st293T cells) (human, UniProt Q02297 20-640); experiment: ELISA on partial-length proteins and flow cytometry on NRG1-a/st293T cells (FIGS. 5 to 7)
# T7 construct: also called NRG1 isoform 2; HA-NRG1-a/st293T; not shown: HA tag added to the N-terminus
# T7 sequence: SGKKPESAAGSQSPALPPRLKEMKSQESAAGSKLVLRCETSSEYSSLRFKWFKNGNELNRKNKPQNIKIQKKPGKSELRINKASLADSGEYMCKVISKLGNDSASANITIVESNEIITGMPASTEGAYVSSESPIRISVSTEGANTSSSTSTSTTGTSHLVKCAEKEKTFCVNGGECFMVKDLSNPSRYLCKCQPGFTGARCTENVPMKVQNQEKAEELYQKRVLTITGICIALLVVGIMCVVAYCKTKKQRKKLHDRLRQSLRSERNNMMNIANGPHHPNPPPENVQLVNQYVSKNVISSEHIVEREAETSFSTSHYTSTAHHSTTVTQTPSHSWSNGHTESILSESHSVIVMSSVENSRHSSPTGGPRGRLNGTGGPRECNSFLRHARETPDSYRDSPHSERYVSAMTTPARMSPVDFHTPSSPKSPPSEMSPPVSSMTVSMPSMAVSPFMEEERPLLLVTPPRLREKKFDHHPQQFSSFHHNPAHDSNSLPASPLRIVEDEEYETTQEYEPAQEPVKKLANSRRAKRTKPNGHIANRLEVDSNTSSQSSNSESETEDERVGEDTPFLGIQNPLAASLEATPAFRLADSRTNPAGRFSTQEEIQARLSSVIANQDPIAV
Binder,binding result [1],binding result [2],binding result [3],binding result [4],binding result [5],binding result [6],binding result [7]
B1,binds,no binding (tested: 10 µg/mL and 1 µg/mL),no binding (tested: 10 µg/mL and 1 µg/mL),no binding (tested: 10 µg/mL and 1 µg/mL),no binding (tested: 10 µg/mL and 1 µg/mL),no binding (tested: 5 µg/mL),–
B2,–,no binding (tested: 10 µg/mL and 1 µg/mL),no binding (tested: 10 µg/mL and 1 µg/mL),no binding (tested: 10 µg/mL and 1 µg/mL),no binding (tested: 10 µg/mL and 1 µg/mL),–,no binding
B3,–,no binding (tested: 10 µg/mL and 1 µg/mL),no binding (tested: 10 µg/mL and 1 µg/mL),no binding (tested: 10 µg/mL and 1 µg/mL),no binding (tested: 10 µg/mL and 1 µg/mL),–,no binding
